Paper PMC5526998, “Structural analysis of the regulatory mechanism of MarR protein Rv2887 in M. tuberculosis” (Scientific Reports, 2017)

Target: the molecule itself
Assay: crystal structure

B1: MarR family protein Rv2887 (natural protein)
chain: MGLADDAPLGYLLYRVGAVLRPEVSAALSPLGLTLPEFVCLRMLSQSPGLSSAELARHASVTPQAMNTVLRKLEDAGAVARPASVSSGRSLPATLTARGRALAKRAEAVVRAADARVLARLTAPQQREFKRMLEKLGSD
notes: also called MarR-like protein Rv2887; apo-Rv2887
B1: binds.
